The target of data set [1] is NAD+-dependent formate dehydrogenase from Starkeya novella (Starkeya novella).
Substrate in data set [2]: O=CO
The data set can be described thus: purified protein. The conditions noted are these: 2.0 mM NAD+, buffer B, 30 °C.

Substrate in data set [3]: NC(=O)c1ccc[n+]([C@@H]2O[C@H](COP(=O)([O-])OP(=O)(O)OC[C@H]3O[C@@H](n4cnc5c(N)ncnc54)[C@H](O)[C@@H]3O)[C@@H](O)[C@H]2O)c1
The data set can be described thus: purified protein. The conditions noted are these: 20 mM formate, buffer B, 30 °C.

Data set [4] concerns the molecule itself.
Substrate in data set [5]: NC(=S)c1ccc[n+]([C@@H]2O[C@H](COP(=O)(O)OP(=O)(O)OC[C@H]3O[C@@H](n4cnc5c(N)ncnc54)[C@H](OP(=O)(O)O)[C@@H]3O)[C@@H](O)[C@H]2O)c1
The data set can be described thus: purified protein. The settings on record: 15.0 mM NADH; buffer B; substrate inhibition term in fit.

The source of these data is article PMC8717395 (JACS Au, 2021).

In the case of “NAD+-dependent formate dehydrogenase from Starkeya novella (enzyme)”, the stoichiometry N (usually a count of units in the complex or per binding partner) in data set [1] was 2.

B1: Fdh (Ancylobacter novellus DSM 506) (protein)
chain: MAKILCVLYDDPVDGYPKTYARDDLPKIDHYPGGQTLPTPKAIDFTPGALLGSVSGELGLRKYLEANGHTFVVTSDKDGPDSVFERELVDADVVISQPFWPAYLTPERIAKAKNLKLALTAGIGSDHVDLQSAIDRGITVAEVTYCNSISVAEHVVMMILGLVRNYIPSHDWARKGGWNIADCVEHSYDLEGMTVGSVAAGRIGLAVLRRLAPFDVKLHYTDRHRLPEAVEKELGLVWHDTREDMYPHCDVVTLNVPLHPETEHMINDETLKLFKRGAYIVNTARGKLADRDAIVRAIESGQLAGYAGDVWFPQPAPKDHPWRTMKWEGMTPHISGTSLSAQARYAAGTREILECFFEGRPIRDEYLIVQGGALAGTGAHSYSKGNATGGSEEAAKFKKAG
In the case of B1, in “purified protein [2]”, the Michaelis-Menten constant (Km) – broadly, the substrate concentration at which the rate is half of its maximum – amounted to 2.15 mM and the kcat – broadly, the maximal rate divided by the concentration of active sites – stood at 0.87 s⁻¹. In the data set “purified protein [3]”, the Km is recorded as 0.11 mM and the kcat turned out to be 1.08 s⁻¹.

B2: soluble pyridine nucleotide transhydrogenase SthA from E. coli (enzyme, E. coli K-12, UniProt P27306 1-466, looked up)
chain: MPHSYDYDAIVIGSGPGGEGAAMGLVKQGARVAVIERYQNVGGGCTHWGTIPSKALRHAVSRIIEFNQNPLYSDHSRLLRSSFADILNHADNVINQQTRMRQGFYERNHCEILQGNARFVDEHTLALDCPDGSVETLTAEKFVIACGSRPYHPTDVDFTHPRIYDSDSILSMHHEPRHVLIYGAGVIGCEYASIFRGMDVKVDLINTRDRLLAFLDQEMSDSLSYHFWNSGVVIRHNEEYEKIEGCDDGVIMHLKSGKKLKADCLLYANGRTGNTDSLALQNIGLETDSRGQLKVNSMYQTAQPHVYAVGDVIGYPSLASAAYDQGRIAAQALVKGEATAHLIEDIPTGIYTIPEISSVGKTEQQLTAMKVPYEVGRAQFKHLARAQIVGMNVGTLKILFHRETKEILGIHCFGERAAEIIHIGQAIMEQKGGGNTIEYFVNTTFNYPTMAEAYRVAALNGLNRLF
In the case of B2, in data set [4], the “stoichiometry N” value was found to be 8.

B3: SthA (Escherichia coli K-12) (protein)
chain: PHSYDYDAIVIGSGPGGEGAAMGLVKQGARVAVIERYQNVGGGCTHWGTIPSKALRHAVSRIIEFNQNPLYSDHSRLLRSSFADILNHADNVINQQTRMRQGFYERNHCEILQGNARFVDEHTLALDCPDGSVETLTAEKFVIACGSRPYHPTDVDFTHPRIYDSDSILSMHHEPRHVLIYGAGVIGCEYASIFRGMDVKVDLINTRDRLLAFLDQEMSDSLSYHFWNSGVVIRHNEEYEKIEGCDDGVIMHLKSGKKLKADCLLYANGRTGNTDSLALQNIGLETDSRGQLKVNSMYQTAQPHVYAVGDVIGYPSLASAAYDQGRIAAQALVKGEATAHLIEDIPTGIYTIPEISSVGKTEQQLTAMKVPYEVGRAQFKHLARAQIVGMNVGTLKILFHRETKEILGIHCFGERAAEIIHIGQAIMEQKGGGNTIEYFVNTTFNYPTMAEAYRVAALNGLNRLF
Take B3: in “purified protein [5]”, the Michaelis-Menten constant (Km) turned out to be 0.03 mM and the kcat is 19.9 s⁻¹.
